# In patent US12679878B2, “CRF2 receptor agonists and their use in therapy” (SANOFI, priority 2020, dated 2026):
# Starred links: 1 amine or outer side, 2 acyl side, 3 side chain; linkers in the order of their positions; H or OH if unused. Non-standard residues stand in square brackets, D forms with d. Groups on a side chain read outwards from the residue. No end group written: not given here. *: point of attachment. C20 diacid = O=C(O)CCCCCCCCCCCCCCCCCCC(=O)*; C18 diacid = O=C(O)CCCCCCCCCCCCCCCCC(=O)*; γGlu = O=C(O)[C@H](CCC(=O)[*:2])N[*:1]; Palmitoyl = CCCCCCCCCCCCCCCC(=O)*; AEEA = NCCOCCOCC(=O)O; Aib = CC(C)(N)C(=O)O
# Target: human corticotropin-releasing factor 2α (CRF2 α receptor) (human), Q13324
# Sequence (Q13324 20-411): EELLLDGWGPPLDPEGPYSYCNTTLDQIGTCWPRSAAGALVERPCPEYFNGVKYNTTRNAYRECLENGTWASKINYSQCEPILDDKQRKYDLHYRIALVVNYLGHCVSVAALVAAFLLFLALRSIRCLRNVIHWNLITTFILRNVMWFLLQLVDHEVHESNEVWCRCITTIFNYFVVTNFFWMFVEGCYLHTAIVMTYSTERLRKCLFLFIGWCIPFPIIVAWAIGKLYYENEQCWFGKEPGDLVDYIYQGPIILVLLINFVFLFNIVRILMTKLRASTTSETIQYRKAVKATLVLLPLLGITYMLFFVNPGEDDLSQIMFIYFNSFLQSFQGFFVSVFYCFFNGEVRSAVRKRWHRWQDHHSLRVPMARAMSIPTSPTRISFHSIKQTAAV
# Test: cell-based or functional assay
"EC50 [nM], 0% HSA","EC50 [nM], 0.1% HSA",Binder
0.01 nM,–,IVLSLD[dV]PTKLK([γGlu-Palmitoyl])QKLLKQERQRK[Aib]REQAEKNKRILERV-NH2 (N-terminus assumed; SMILES CCCCCCCCCCCCCCCC(=O)N[C@@H](CCC(=O)NCCCC[C@H](NC(=O)[C@H](CC(C)C)NC(=O)[C@H](CCCCN)NC(=O)[C@@H](NC(=O)[C@@H]1CCCN1C(=O)[C@H](NC(=O)[C@H](CC(=O)O)NC(=O)[C@H](CC(C)C)NC(=O)[C@H](CO)NC(=O)[C@H](CC(C)C)NC(=O)[C@@H](NC(=O)[C@@H](N)[C@@H](C)CC)C(C)C)C(C)C)[C@@H](C)O)C(=O)N[C@@H](CCC(N)=O)C(=O)N[C@@H](CCCCN)C(=O)N[C@@H](CC(C)C)C(=O)N[C@@H](CC(C)C)C(=O)N[C@@H](CCCCN)C(=O)N[C@@H](CCC(N)=O)C(=O)N[C@@H](CCC(=O)O)C(=O)N[C@@H](CCCNC(=N)N)C(=O)N[C@@H](CCC(N)=O)C(=O)N[C@@H](CCCNC(=N)N)C(=O)N[C@@H](CCCCN)C(=O)NC(C)(C)C(=O)N[C@@H](CCCNC(=N)N)C(=O)N[C@@H](CCC(=O)O)C(=O)N[C@@H](CCC(N)=O)C(=O)N[C@@H](C)C(=O)N[C@@H](CCC(=O)O)C(=O)N[C@@H](CCCCN)C(=O)N[C@@H](CC(N)=O)C(=O)N[C@@H](CCCCN)C(=O)N[C@@H](CCCNC(=N)N)C(=O)N[C@H](C(=O)N[C@@H](CC(C)C)C(=O)N[C@@H](CCC(=O)O)C(=O)N[C@@H](CCCNC(=N)N)C(=O)N[C@H](C(N)=O)C(C)C)[C@@H](C)CC)C(=O)O) [SEQ ID NO: 20]
13.9 nM,–,Ac-IVLSLD[dV]PIELK([AEEA-AEEA-γGlu-C18 diacid])QILLEQERQK[Aib]QREQAEKNEQILEQV-NH2 (SMILES CC[C@H](C)[C@H](NC(C)=O)C(=O)N[C@H](C(=O)N[C@@H](CC(C)C)C(=O)N[C@@H](CO)C(=O)N[C@@H](CC(C)C)C(=O)N[C@@H](CC(=O)O)C(=O)N[C@@H](C(=O)N1CCC[C@H]1C(=O)N[C@H](C(=O)N[C@@H](CCC(=O)O)C(=O)N[C@@H](CC(C)C)C(=O)N[C@@H](CCCCNC(=O)COCCOCCNC(=O)COCCOCCNC(=O)CC[C@H](NC(=O)CCCCCCCCCCCCCCCCC(=O)O)C(=O)O)C(=O)N[C@@H](CCC(N)=O)C(=O)N[C@H](C(=O)N[C@@H](CC(C)C)C(=O)N[C@@H](CC(C)C)C(=O)N[C@@H](CCC(=O)O)C(=O)N[C@@H](CCC(N)=O)C(=O)N[C@@H](CCC(=O)O)C(=O)N[C@@H](CCCNC(=N)N)C(=O)N[C@@H](CCC(N)=O)C(=O)N[C@@H](CCCCN)C(=O)NC(C)(C)C(=O)N[C@@H](CCC(N)=O)C(=O)N[C@@H](CCCNC(=N)N)C(=O)N[C@@H](CCC(=O)O)C(=O)N[C@@H](CCC(N)=O)C(=O)N[C@@H](C)C(=O)N[C@@H](CCC(=O)O)C(=O)N[C@@H](CCCCN)C(=O)N[C@@H](CC(N)=O)C(=O)N[C@@H](CCC(=O)O)C(=O)N[C@@H](CCC(N)=O)C(=O)N[C@H](C(=O)N[C@@H](CC(C)C)C(=O)N[C@@H](CCC(=O)O)C(=O)N[C@@H](CCC(N)=O)C(=O)N[C@H](C(N)=O)C(C)C)[C@@H](C)CC)[C@@H](C)CC)[C@@H](C)CC)C(C)C)C(C)C) [SEQ ID NO: 168]
4.01 nM,98.1 nM,Ac-IVLSLD[dV]PIKLK([AEEA-AEEA-γGlu-C18 diacid])QILLEQERQE[Aib]QREQAEKNEQILEQV-NH2 (SMILES CC[C@H](C)[C@H](NC(C)=O)C(=O)N[C@H](C(=O)N[C@@H](CC(C)C)C(=O)N[C@@H](CO)C(=O)N[C@@H](CC(C)C)C(=O)N[C@@H](CC(=O)O)C(=O)N[C@@H](C(=O)N1CCC[C@H]1C(=O)N[C@H](C(=O)N[C@@H](CCCCN)C(=O)N[C@@H](CC(C)C)C(=O)N[C@@H](CCCCNC(=O)COCCOCCNC(=O)COCCOCCNC(=O)CC[C@H](NC(=O)CCCCCCCCCCCCCCCCC(=O)O)C(=O)O)C(=O)N[C@@H](CCC(N)=O)C(=O)N[C@H](C(=O)N[C@@H](CC(C)C)C(=O)N[C@@H](CC(C)C)C(=O)N[C@@H](CCC(=O)O)C(=O)N[C@@H](CCC(N)=O)C(=O)N[C@@H](CCC(=O)O)C(=O)N[C@@H](CCCNC(=N)N)C(=O)N[C@@H](CCC(N)=O)C(=O)N[C@@H](CCC(=O)O)C(=O)NC(C)(C)C(=O)N[C@@H](CCC(N)=O)C(=O)N[C@@H](CCCNC(=N)N)C(=O)N[C@@H](CCC(=O)O)C(=O)N[C@@H](CCC(N)=O)C(=O)N[C@@H](C)C(=O)N[C@@H](CCC(=O)O)C(=O)N[C@@H](CCCCN)C(=O)N[C@@H](CC(N)=O)C(=O)N[C@@H](CCC(=O)O)C(=O)N[C@@H](CCC(N)=O)C(=O)N[C@H](C(=O)N[C@@H](CC(C)C)C(=O)N[C@@H](CCC(=O)O)C(=O)N[C@@H](CCC(N)=O)C(=O)N[C@H](C(N)=O)C(C)C)[C@@H](C)CC)[C@@H](C)CC)[C@@H](C)CC)C(C)C)C(C)C) [SEQ ID NO: 169]
0.04 nM,2.76 nM,IVLSLD[dV]PIKLK([AEEA-AEEA-γGlu-γGlu-C20 diacid])QILLKQERQK[Aib]QREQAEKNKQILAQV-NH2 (N-terminus assumed; SMILES CC[C@H](C)[C@H](N)C(=O)N[C@H](C(=O)N[C@@H](CC(C)C)C(=O)N[C@@H](CO)C(=O)N[C@@H](CC(C)C)C(=O)N[C@@H](CC(=O)O)C(=O)N[C@@H](C(=O)N1CCC[C@H]1C(=O)N[C@H](C(=O)N[C@@H](CCCCN)C(=O)N[C@@H](CC(C)C)C(=O)N[C@@H](CCCCNC(=O)COCCOCCNC(=O)COCCOCCNC(=O)CC[C@H](NC(=O)CC[C@H](NC(=O)CCCCCCCCCCCCCCCCCCC(=O)O)C(=O)O)C(=O)O)C(=O)N[C@@H](CCC(N)=O)C(=O)N[C@H](C(=O)N[C@@H](CC(C)C)C(=O)N[C@@H](CC(C)C)C(=O)N[C@@H](CCCCN)C(=O)N[C@@H](CCC(N)=O)C(=O)N[C@@H](CCC(=O)O)C(=O)N[C@@H](CCCNC(=N)N)C(=O)N[C@@H](CCC(N)=O)C(=O)N[C@@H](CCCCN)C(=O)NC(C)(C)C(=O)N[C@@H](CCC(N)=O)C(=O)N[C@@H](CCCNC(=N)N)C(=O)N[C@@H](CCC(=O)O)C(=O)N[C@@H](CCC(N)=O)C(=O)N[C@@H](C)C(=O)N[C@@H](CCC(=O)O)C(=O)N[C@@H](CCCCN)C(=O)N[C@@H](CC(N)=O)C(=O)N[C@@H](CCCCN)C(=O)N[C@@H](CCC(N)=O)C(=O)N[C@H](C(=O)N[C@@H](CC(C)C)C(=O)N[C@@H](C)C(=O)N[C@@H](CCC(N)=O)C(=O)N[C@H](C(N)=O)C(C)C)[C@@H](C)CC)[C@@H](C)CC)[C@@H](C)CC)C(C)C)C(C)C) [SEQ ID NO: 172]
62.1 nM,–,Ac-IVLSLD[dV]PIELK([AEEA-AEEA-γGlu-C18 diacid])QILLEQERQE[Aib]QREQAEKNEQILEQV-NH2 (SMILES CC[C@H](C)[C@H](NC(C)=O)C(=O)N[C@H](C(=O)N[C@@H](CC(C)C)C(=O)N[C@@H](CO)C(=O)N[C@@H](CC(C)C)C(=O)N[C@@H](CC(=O)O)C(=O)N[C@@H](C(=O)N1CCC[C@H]1C(=O)N[C@H](C(=O)N[C@@H](CCC(=O)O)C(=O)N[C@@H](CC(C)C)C(=O)N[C@@H](CCCCNC(=O)COCCOCCNC(=O)COCCOCCNC(=O)CC[C@H](NC(=O)CCCCCCCCCCCCCCCCC(=O)O)C(=O)O)C(=O)N[C@@H](CCC(N)=O)C(=O)N[C@H](C(=O)N[C@@H](CC(C)C)C(=O)N[C@@H](CC(C)C)C(=O)N[C@@H](CCC(=O)O)C(=O)N[C@@H](CCC(N)=O)C(=O)N[C@@H](CCC(=O)O)C(=O)N[C@@H](CCCNC(=N)N)C(=O)N[C@@H](CCC(N)=O)C(=O)N[C@@H](CCC(=O)O)C(=O)NC(C)(C)C(=O)N[C@@H](CCC(N)=O)C(=O)N[C@@H](CCCNC(=N)N)C(=O)N[C@@H](CCC(=O)O)C(=O)N[C@@H](CCC(N)=O)C(=O)N[C@@H](C)C(=O)N[C@@H](CCC(=O)O)C(=O)N[C@@H](CCCCN)C(=O)N[C@@H](CC(N)=O)C(=O)N[C@@H](CCC(=O)O)C(=O)N[C@@H](CCC(N)=O)C(=O)N[C@H](C(=O)N[C@@H](CC(C)C)C(=O)N[C@@H](CCC(=O)O)C(=O)N[C@@H](CCC(N)=O)C(=O)N[C@H](C(N)=O)C(C)C)[C@@H](C)CC)[C@@H](C)CC)[C@@H](C)CC)C(C)C)C(C)C) [SEQ ID NO: 170]
0.17 nM,2.62 nM,IVLSLD[dV]PIKLK([AEEA-AEEA-γGlu-γGlu-C18 diacid])QILLKQERQK[Aib]QREQAEKNKQILAQV-NH2 (N-terminus assumed; SMILES CC[C@H](C)[C@H](N)C(=O)N[C@H](C(=O)N[C@@H](CC(C)C)C(=O)N[C@@H](CO)C(=O)N[C@@H](CC(C)C)C(=O)N[C@@H](CC(=O)O)C(=O)N[C@@H](C(=O)N1CCC[C@H]1C(=O)N[C@H](C(=O)N[C@@H](CCCCN)C(=O)N[C@@H](CC(C)C)C(=O)N[C@@H](CCCCNC(=O)COCCOCCNC(=O)COCCOCCNC(=O)CC[C@H](NC(=O)CC[C@H](NC(=O)CCCCCCCCCCCCCCCCC(=O)O)C(=O)O)C(=O)O)C(=O)N[C@@H](CCC(N)=O)C(=O)N[C@H](C(=O)N[C@@H](CC(C)C)C(=O)N[C@@H](CC(C)C)C(=O)N[C@@H](CCCCN)C(=O)N[C@@H](CCC(N)=O)C(=O)N[C@@H](CCC(=O)O)C(=O)N[C@@H](CCCNC(=N)N)C(=O)N[C@@H](CCC(N)=O)C(=O)N[C@@H](CCCCN)C(=O)NC(C)(C)C(=O)N[C@@H](CCC(N)=O)C(=O)N[C@@H](CCCNC(=N)N)C(=O)N[C@@H](CCC(=O)O)C(=O)N[C@@H](CCC(N)=O)C(=O)N[C@@H](C)C(=O)N[C@@H](CCC(=O)O)C(=O)N[C@@H](CCCCN)C(=O)N[C@@H](CC(N)=O)C(=O)N[C@@H](CCCCN)C(=O)N[C@@H](CCC(N)=O)C(=O)N[C@H](C(=O)N[C@@H](CC(C)C)C(=O)N[C@@H](C)C(=O)N[C@@H](CCC(N)=O)C(=O)N[C@H](C(N)=O)C(C)C)[C@@H](C)CC)[C@@H](C)CC)[C@@H](C)CC)C(C)C)C(C)C) [SEQ ID NO: 171]
